Measurements reported in patent publication US12156920B2, “Double-labeled probe for molecular imaging and use thereof” (Deutsches Krebsforschungszentrum, priority 2017, dated 2024).

Tests used:
[1] = Biodistribution (organ distribution) of 68Ga-labeled compounds; format: in vivo, mice; conditions: male, BALB/c nu/nu, mouse, in vivo, iv, 60 pmol, total radioactivity
Method: (§1) The precursor peptides [1 nmol in HEPES buffer (580 mg/ml), 90 μL] were added to 40 μL [^68Ga]Ga^3+ eluate (˜40 MBq). The pH was adjusted to 3.8 using 30% NaOH and 10% NaOH, respectively. The reaction mixture was incubated at 98° C. for 10 minutes. The radiochemical yield (RCY) was determined by HPLC. For the experimental tumor models 5×10^6 cells of LNCaP (in 50% Matrigel; Becton Dickinson, Heidelberg, Germany) were subcutaneously inoculated into the right trunk of 7- to 8-week-old male BALB/c nu/nu mice (Charles River). The tumors were allowed to grow until approximately 1 cm^3 in size. The ^68Ga-labeled compounds were injected into a tail vein (1-2 MBq; 60 pmol). […] Organs of interest were dissected, blotted dry, and weighed. The radioactivity was measured using a gamma counter and calculated as % ID/g. All animal experiments complied with the current laws of the Federal Republic of Germany.

[2] = tested on: LNCaP-tumor bearing balb/c nu/nu mice; experiment: as above; format: in vivo; conditions: mouse, in vivo
Method: as §1

PSMA = molecular target: T1, PSMA (Homo sapiens, UniProt Q04609); experiment: Competitive cell binding assay on LNCaP cells (PSMA binding affinity); conditions: competition against 0.2 nM 68Ga-labeled PSMA-10
T1 construct: endogenous in cells; host or cells: LNCaP cells (ATCC CRL-1740)
Method: PSMA^+ LNCaP cells (ATCC CRL-1740) were cultured in RPMI medium supplemented with 10% fetal calf serum and 2 mmol/L L-glutamine (all from PAA). Cells were grown at 37° C. in humidified air with 5% CO2 and were harvested using trypsin-ethylenediaminetetraacetic acid (trypsin-EDTA; 0.25% trypsin, 0.02% EDTA, Invitrogen).
The competitive cell binding assay and internalization experiments were performed as described previously (4). Briefly, the cells (10^5 per well) were incubated with a 0.2 nM solution of ^68Ga-labeled radioligand [Glu-urea-Lys(Ahx)]2-HBED-CC (PSMA-10, precursor ordered from ABX, Radeberg, Germany) in the presence of 12 different concentrations of analyte (0-5000 nM, 100 μL/well). After incubation, the mixture was removed and the wells were washed 3 times with PBS using a multiscreen vacuum manifold (Millipore, Billerica, Mass.). Cell-bound radioactivity was measured using a gamma counter (Packard Cobra II, GMI, Minnesota, USA). The 50% inhibitory concentration (IC50) values were calculated by fitting the data using a nonlinear regression algorithm (GraphPad Software).

[3] = Organ distribution Tumor (tumor accumulation)
[4] = Tumor-to-Organ ratio T/Intestine

T1 sequence (Q04609 whole entry): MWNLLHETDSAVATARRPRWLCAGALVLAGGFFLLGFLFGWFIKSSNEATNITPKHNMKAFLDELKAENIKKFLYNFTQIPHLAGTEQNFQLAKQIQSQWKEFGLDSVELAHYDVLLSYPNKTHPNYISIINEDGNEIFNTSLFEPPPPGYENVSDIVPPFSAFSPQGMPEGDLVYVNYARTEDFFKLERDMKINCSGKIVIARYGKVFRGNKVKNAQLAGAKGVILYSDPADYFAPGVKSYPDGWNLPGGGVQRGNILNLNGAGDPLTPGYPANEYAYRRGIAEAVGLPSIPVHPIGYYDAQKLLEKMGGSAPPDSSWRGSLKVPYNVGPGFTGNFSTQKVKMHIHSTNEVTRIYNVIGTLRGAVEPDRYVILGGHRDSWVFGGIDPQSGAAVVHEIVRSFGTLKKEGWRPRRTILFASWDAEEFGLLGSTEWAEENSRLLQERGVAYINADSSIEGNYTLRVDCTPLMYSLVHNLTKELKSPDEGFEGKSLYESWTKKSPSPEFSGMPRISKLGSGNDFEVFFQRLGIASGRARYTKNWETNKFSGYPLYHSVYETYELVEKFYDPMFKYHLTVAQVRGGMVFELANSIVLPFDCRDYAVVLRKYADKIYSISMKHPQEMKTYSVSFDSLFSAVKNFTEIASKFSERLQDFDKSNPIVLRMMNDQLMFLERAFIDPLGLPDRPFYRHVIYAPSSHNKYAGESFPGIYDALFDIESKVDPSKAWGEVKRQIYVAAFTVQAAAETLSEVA

SMILES	tissue uptake at 1 h ([1]; Organ distribution Blood) [%ID/g]	tissue uptake at 1 h ([1]; Organ distribution Brain) [%ID/g]	tissue uptake at 1 h ([1]; Organ distribution Heart) [%ID/g]	tissue uptake at 1 h ([1]; Organ distribution Intestine) [%ID/g]	tissue uptake at 1 h ([1]; Organ distribution Kidney) [%ID/g]	tissue uptake at 1 h ([1]; Organ distribution Liver) [%ID/g]	tissue uptake at 1 h ([1]; Organ distribution Lung) [%ID/g]	tissue uptake at 1 h ([1]; Organ distribution Muscle) [%ID/g]	tissue uptake at 1 h ([1]; Organ distribution Spleen) [%ID/g]	tissue uptake at 1 h [1, 3] [%ID/g]	tissue to tissue ratio at 1 h ([1]; Tumor-to-Organ ratio T/Blood)	tissue to tissue ratio at 1 h ([1]; Tumor-to-Organ ratio T/Brain)	tissue to tissue ratio at 1 h ([1]; Tumor-to-Organ ratio T/Heart)	tissue to tissue ratio at 1 h [1, 4]	tissue to tissue ratio at 1 h ([1]; Tumor-to-Organ ratio T/Kidney)	tissue to tissue ratio at 1 h ([1]; Tumor-to-Organ ratio T/Liver)	tissue to tissue ratio at 1 h ([1]; Tumor-to-Organ ratio T/Lung)	tissue to tissue ratio at 1 h ([1]; Tumor-to-Organ ratio T/Muscle)	tissue to tissue ratio at 1 h ([1]; Tumor-to-Organ ratio T/Spleen)	also measured
CC1(C)C(/C=C/C2=C(Oc3ccc(S(=O)(=O)O)cc3)C(=C\C=C3/N(CCCCS(=O)(=O)O)c4ccc(S(=O)(=O)O)cc4C3(C)C)/CCC2)=[N+](CCCCCC(=O)NCCOCCOCCNC(=O)CCc2ccc(O)c(CN(CCN(CC(=O)O)Cc3cc(CCC(=O)NCc4cn(CCCCC(=O)NC(CCC(=O)O)C(=O)NC(Cc5cnc[nH]5)C(=O)NCCCCC(NC(=O)NC(CCC(=O)O)C(=O)O)C(=O)O)nn4)ccc3O)CC(=O)O)c2)c2ccc(S(=O)(=O)O)cc21 (centres unmarked) [PSMA-(HE)1-HBED-CC-PEG2-IRDye800CW, Glu-urea-Lys-(HE)1-HBED-CC-PEG2-IRDye800CW]	1.52	0.3	0.94	1.29	84.3	1.19	2.46	1.03	8.17	3.92	2.58	13	4.19	3.05	0.05	3.3	1.6	3.81	0.48	–
CC1(C)C(/C=C/C2=C(Oc3ccc(S(=O)(=O)O)cc3)C(=C\C=C3/N(CCCCS(=O)(=O)O)c4ccc(S(=O)(=O)O)cc4C3(C)C)/CCC2)=[N+](CCCCCC(=O)NCCOCCOCCNC(=O)CCc2ccc(O)c(CN(CCN(CC(=O)O)Cc3cc(CCC(=O)NCc4cn(CCCCC(=O)N[C@@H](CCC(=O)O)C(=O)N[C@@H](Cc5cnc[nH]5)C(=O)N[C@@H](CCC(=O)O)C(=O)N[C@@H](Cc5cnc[nH]5)C(=O)N[C@@H](CCC(=O)O)C(=O)N[C@@H](Cc5cnc[nH]5)C(=O)NCCCC[C@H](NC(=O)N[C@@H](CCC(=O)O)C(=O)O)C(=O)O)nn4)ccc3O)CC(=O)O)c2)c2ccc(S(=O)(=O)O)cc21 [PSMA-(HE)3-HBED-CC-PEG2-IRDye800CW, Glu-urea-Lys-(HE)3-HBED-CC-PEG2-IRDye800CW]	1.12	0.18	1.36	1.31	109	1.25	2.34	1.18	3.47	7.59	6.8	42.6	5.57	5.8	0.07	6.08	3.24	6.45	2.19	tissue uptake at 2 h ([1]; Organ distribution Blood): 0.65 %ID/g; tissue uptake at 2 h ([1]; Organ distribution Brain): 0.23 %ID/g; tissue uptake at 2 h ([1]; Organ distribution Heart): 0.53 %ID/g; tissue uptake at 2 h ([1]; Organ distribution Intestine): 0.67 %ID/g; tissue uptake at 2 h ([1]; Organ distribution Kidney): 55.8 %ID/g; tissue uptake at 2 h ([1]; Organ distribution Liver): 0.76 %ID/g; tissue uptake at 2 h ([1]; Organ distribution Lung): 0.89 %ID/g; tissue uptake at 2 h ([1]; Organ distribution Muscle): 0.47 %ID/g; tissue uptake at 2 h ([1]; Organ distribution Spleen): 0.76 %ID/g; tissue uptake at 2 h ([1]; Organ distribution Tumor): 3.1 %ID/g; Tumor-to-Organ ratio T/Blood [2]: 6.80; Tumor-to-Organ ratio T/Brain [2]: 42.63; Tumor-to-Organ ratio T/Heart [2]: 5.57; Tumor-to-Organ ratio T/Intestine [2]: 5.80; Tumor-to-Organ ratio T/Kidney [2]: 0.07; Tumor-to-Organ ratio T/Liver [2]: 6.08; Tumor-to-Organ ratio T/Lung [2]: 3.24; Tumor-to-Organ ratio T/Muscle [2]: 6.45; Tumor-to-Organ ratio T/Spleen [2]: 2.19; Ki (PSMA): 36.7 ± 9.77 nM
CC1(C)C(/C=C/C2=C(Oc3ccc(S(=O)(=O)O)cc3)C(=C\C=C3/N(CCCCS(=O)(=O)O)c4ccc(S(=O)(=O)O)cc4C3(C)C)/CCC2)=[N+](CCCCCC(=O)NCCOCCOCCNC(=O)CCc2ccc(O)c(CN(CCN(CC(=O)O)Cc3cc(CCC(=O)NCc4cn(CCCCC(=O)NC(CCC(=O)O)C(=O)NC(Cc5c[nH]c6ccccc56)C(=O)NCCCCC(NC(=O)NC(CCC(=O)O)C(=O)O)C(=O)O)nn4)ccc3O)CC(=O)O)c2)c2ccc(S(=O)(=O)O)cc21 (centres unmarked) [PSMA-(WE)1-HBED-CC-PEG2-IRDye800CW, Glu-urea-Lys-(WE)1-HBED-CC-PEG2-IRDye800CW]	1.61	0.15	1.49	0.96	105	1.73	2.57	1	12.9	3.85	2.39	25.6	2.59	4.01	0.04	2.23	1.5	3.86	0.3	–
